# Measurements as given in the nanobody polyreactivity screen of Harvey et al. (2022).
# Assay: yeast display, Sf9 membrane polyspecificity reagent, FACS + sequencing; frameworks hold sequencing errors
# In short: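 Sorting gates, low and high (top ~1%), were placed on anti-HA fluorescence to track expression and on streptavidin fluorescence to track reagent binding. A clone's polyreactivity label is taken from the gate it came out of. The reagent was 10% biotinylated, detergent-solubilized Sf9 membrane, applied for 1 hour at 4 °C to galactose-induced yeast display cells.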
row,Sequence,polyreactivity (PSR sort gate)
1,QVQLVESGGGLVQAGGSLRLSCAASGSIFYPYAMGWYRQAPGKERELVAAISYSGGITYYADSVKGRFTISRDNAKNTVYLQMNSLKPEDTAVYYCNKLIYFKPAGSHDYWGQGTQVTVSS,high polyreactivity
2,QVQLVESGGGLVQAGGSLRLSCAASGSIFYPYAMGWYRQAPGKERELVAAITWSGGDTYYADSVKGRFTISRDKAKYTDYLQMNSLKPEDTAVYYSAAEWNVSPYDYWGQGTQVTVSS,low polyreactivity
3,QVQLVESGGGLVQAGGSLRLSCAASGSIFYPYAMGWYRQAPGKERELVADINSDGSTTYADSVKGRFTISRDNAKNTVYLQMNSLKPEDTAVYYCAVDVSVNWPLLERYEYWGQGTQVTVSS,low polyreactivity
4,QVQLVESGGGLVQAGGSLRLSCAASGSIFYPYAMGWYRQAPGKEREWVATITLSGGRTYYADSVKGRFTISRDNAKNTVYLQMNSLKPEDTAVYYCATDYAYGAFLYDYWGQGTQVTVSS,low polyreactivity
5,QVQLVESGGGLVQAGGSLRLSCAASGSIFYPYVMGWYRQAPGKERELVAAITTSVGSTYYADSVKGRFTISRDNAKNTVYLQMNSLKPEDTAVYYCAAIYFGSRRPGRYNYWGQGTQVTVSS,high polyreactivity
6,QVQLVESGGGLVQAGGSLRLSCAASGSIFYQNAMGWYRQAPGKEREFVAAIRSSGSSTYYADSVKGRFTISRDNAKNTVYLQMNSLKPEDTAVYYCAAPSSRGQGRNFDYWGQGTQVTVSS,high polyreactivity
7,QVQLVESGGGLVQAGGSLRLSCAASGSIFYQYAMGWYRQAPGKEREMLAAIRYSGSSTYYADSVKGRFTISRDNAKNTVYLQMNSLKPEDTEVYYCGKTLRRRRGDRRYRVIEMDHWGQGTQVTVSS,low polyreactivity
8,QVQLVESGGGLVQAGGSLRLSCAASGSIFYQYAMGWYRQARGKERELVAAITWDGSRTYYADSVKGRFTISRDNAKNTVYLQMNSLKPEDTAVYYCNANLAWRRYDGTYNYWGQGSQVTVSS,high polyreactivity
9,QVQLVESGGGLVQAGGSLRLSCAASGSIFYQYGMGWYRQAPGKERELVAAITYDDDSTYYADSVKGRFTISRDNAKNTVYLQMNSLKPEDTAVYYCAAYYYKLEYDYWGQGTQVTVSS,high polyreactivity
10,QVQLVESGGGLVQAGGSLRLSCAASGSIFYRNAMGWYRQAPGKERELVAAISSGTSTYYADSVKGRFTISRDNAKNTVYLQMNSLKPEDTAVYYCAKQYAFVPWWSRYHGELDYWGQGTQVTVSS,low polyreactivity
11,QVQLVESGGGLVQAGGSLRLSCAASGSIFYRNAMGWYRQAPGKERELVAAISWRGGSTYYADSVKGRFTISRDNAKNTVFLQMNSLKPEDTAVYYCAAAQRVNHVWYDYWGQGTQVTVSS,low polyreactivity
12,QVQLVESGGGLVQAGGSLRLSCAASGSIFYRNAMGWYRQAPGNERELVAAITSGASTYYADSVKGRFTISRDNAKNTVYLQMNSLKPEDTEVYYCAADSDSQWGMDYWGQGTQVTVSS,low polyreactivity
13,QVQLVESGGGLVQAGGSLRLSCAASGSIFYRNVMGWYRQAPGKERELVAAISQRGGSTYYADSVKGRFTISRDNAKNTVYLQMNSLKPEDTAVYYCIAASRGAGTSIWSWYDHWGQGTQVTVSS,low polyreactivity
14,QVQLVESGGGLVQAGGSLRLSCAASGSIFYRNVMGWYRQAPGKERELVAVITGSGDSTFYADSVKGRFTISRDNAKNTVYLQMNSLKPEDTAVYYCNARQVSGGYYYWGQGTQVTVSW,low polyreactivity
15,QVQLVESGGGLVQAGGSLRLSCAASGSIFYRYAMGWYRQAPGKERELVAAITSTGSRTFYADSVKVRFTISRDNAKNTVYLQMNSLKPEDTAVYYCAADARYNGYHGVDYWGQGTLVTVSS,high polyreactivity
16,QVQLVESGGGLVQAGGSLRLSCAASGSIFYRYAMGWYRQAPGKESELVAAITQSTDSTYYADSVKGRFTISRDNAKNTVYLQMNSLKPEDTAVYYCAAYLVYYRPYAYGYWGQGTQVTVSS,low polyreactivity
17,QVQLVESGGGLVQAGGSLRLSCAASGSIFYRYTMGWYRQAPGKERELVAAISSRGGSTYYADSVKGRFTISRDNAKNTVYLQMNSLKPEDTAVYYCAARFSYWAPSKGYGYWGQGTQVTVSS,high polyreactivity
18,QVQLVESGGGLVQAGGSLRLSCAASGSIFYRYTMGWYRQAPGKERELVAVISRRGGSTYYADSVKGRFTISRDNAKNTVYLQMNSLKPEDTAVYYCAVRQYRTSVRQGNTLWDDYWGQGTQVTVSS,high polyreactivity
19,QVQLVESGGGLVQAGGSLRLSCAASGSIFYSNAMGWYRQAPGKERELVAAIHWSGGSTYYADSVKGRFTISRDNAKNTFYLLMNSLKPEDTAVYYCAADYGWGPIYDYWGQGTQVNVSS,low polyreactivity
20,QVQLVESGGGLVQAGGSLRLSCAASGSIFYSNAMGWYRQAPGKERELVAAINWSGVRTYYADSVKGRFTISRDNAKNTVYLQMNSLKPEDTAVYYCAAKTYQQQIVRPMYYWGQCTQVTVSS,high polyreactivity
21,QVQLVESGGGLVQAGGSLRLSCAASGSIFYSNAMGWYRQAPGKERELVAAITVGGGRTYYADSVKGRFTISRDNAKYTVYLQMNSLNPEDTAVYYCAADSHASTYDYWGQGTQVTVSS,low polyreactivity
22,QVQLVESGGGLVQAGGSLRLSCAASGSIFYSNAMGWYRQAPGKERELVADISWSDGSTYYADSVKGRFTISRDNAKNNVYLQMNSLKPEDTEVYYCARKAGYSYFRRYDYWGQGTQVTVSS,low polyreactivity

row,Sequence,polyreactivity (PSR sort gate)
1,QVQLVESGGGLVQAGGSLRLSCAASGSIFYSNKGWYRQAPGKEREFVAAISGSGVRTYYADSVKGRFTISRDNAKNTVYLQMNSLKPEDTAVYYCNAGRRQDYRYIYWGQGTQVTVSS,high polyreactivity
2,QVQLVESGGGLVQAGGSLRLSCAASGSIFYSNTIGWYRQAPRKERELDAAITSGGGTNYADSVKGRFTISRDNAKNTVYLQMNSLKPEDTAVYYCAAVTKTLYRSYFLMYYWGQGTQVTVSS,high polyreactivity
3,QVQLVESGGGLVQAGGSLRLSCAASGSIFYSNVMGWYRQAPGKERELVARITDAGSTNYADSVKGRFTISRDNAKNTVYLQMNSLKPEDTAVYYCNARLVIYTYDYWGQGTQVTVSS,low polyreactivity
4,QVQLVESGGGLVQAGGSLRLSCAASGSIFYSNVMGWYRQAPGKERELVARITVAGSTNYADSVKGRFTISRDNAKNTVYLQMNSLKPEDTAVYYCNARLVIYTYDYWGQGTQVTVSS,low polyreactivity
5,QVQLVESGGGLVQAGGSLRLSCAASGSIFYSNVMGWYRQAPGKERELVASITNGGGTYYADSVKGRFTISRDNAKTTVYLQMNSLKPEDTAVYYCARRVYYWGQGTQVTVSS,high polyreactivity
6,QVQLVESGGGLVQAGGSLRLSCAASGSIFYSNVMGWYRQAPGQERELVARITDAGSTNYADSVKGRFTISRDNAKHTVYFQMNSLKPEDTAVYYCNARLVIYTFDYWGQGTLVTVSS,low polyreactivity
7,QVQLVESGGGLVQAGGSLRLSCAASGSIFYSYAMAWYRQAPGKERELVAAITSGGSTYYADSVKGRFTISRDNAKNTVYLQMNTLKPEDTAVYYCAKRWPAYWGKGHGSWGQGTQVTVSS,high polyreactivity
8,QVQLVESGGGLVQAGGSLRLSCAASGSIFYSYAMGWYIQAHGKERELVARINYRGGSTYYADSVKGRFTISRDNAKNTVYLQMNSLKPEDTAVFYCAKRSYWSSNPRDYWGQGTKVTVSS,high polyreactivity
9,QVQLVESGGGLVQAGGSLRLSCAASGSIFYSYAMGWYRQAPGKERELVAAISRSGVSTYYADSVKGRFTISRDNAKNTVYLQMNSLKPEDTAVYYCASPYFVSYQGYDYWGQGTQVTVSS,high polyreactivity
10,QVQLVESGGGLVQAGGSLRLSCAASGSIFYSYGMGWYRQAPGKERELVAAITSSGGGTYYADSVKGRFTISRDNAKNTVYLQMNSLKPEDTAVYYCAADDRNYNYYPTFYYWGQGTQVTVSS,low polyreactivity
11,QVQLVESGGGLVQAGGSLRLSCAASGSIFYSYVMGWYRQAPGKERELVAAISRNGQSTYYADSVKGRFTISRDNAKNTVYLQMNSLKPEDTAVYYCATRGTKSIKDVPGIRYGYWGQGTQVTVSS,high polyreactivity
12,QVQLVESGGGLVQAGGSLRLSCAASGSIFYTYAMGWYRQAPGKERELVAGISWRGGSTYYADSVKGRYTISRDNAKNTVYLQMNSLNPEDTAVYYCAASYFWDRVPGRGIHDYWGQGTQVTVSS,high polyreactivity
13,QVQLVESGGGLVQAGGSLRLSCAASGSIFYTYAMGWYRQAPGKERELVASITNDDSTNYADSVKGRFTISRDNAKKTVYLQMNSLKPEDTAVYYCADDSNWIYDIEYDYWGQGTQVTVSS,low polyreactivity
14,QVQLVESGGGLVQAGGSLRLSCAASGSIFYVNAMGWYRQAPGKERELVASITASGGTTYYADSVKGRFTISRDNAKNNVYLQMNSLKPEDTAVYYCAATFIQVVVNVQLYDYDYWGQGTQVTVSS,low polyreactivity
15,QVQLVESGGGLVQAGGSLRLSCAASGSIFYVNDMGWYRQAPGKERELVAAISSTGSTKYADSVKGRFTISRDNAKNTVYLQMNSLKPEDTAVYYCAKEPGHRFEFDYWGQGTQVTVSS,low polyreactivity
16,QVQLVESGGGLVQAGGSLRLSCAASGSIFYVYAMGWYRQAPGKERELVAAINTSSGDTYYADSVKGRFTISRDNAKNTVYLQMNSLKPEDTAVYYCNARTRSSYTIGSYLLSYDYWGQGTQVTVSS,high polyreactivity
17,QVQLVESGGGLVQAGGSLRLSCAASGSIFYVYAMGWYRQAPGKERELVAAITSSGTTNYADSVKGRFTISRDNAKNTVYLQMNSLKPEDTAVYYCAADAYSGAYFTYLGEIYDYWGQGTQVTVSS,low polyreactivity
18,QVQLVESGGGLVQAGGSLRLSCAASGSIFYVYAMGWYRQAPGKERELVATISTGGSTYYADSVKGRFTISRDNAKNTVYLQMNSLKPEDTAVYYCNAQFTPRYRGGYDSWGQCTQVTVSS,low polyreactivity
19,QVQLVESGGGLVQAGGSLRLSCAASGSIFYVYGMGWYRQAPGKERELVAAITRSGGIKYYADSVKGRFTISRDNAKNTVYLLMNSLKPEDTAVYYCAALSYRYTDKVVYWGQGTQVTVSS,low polyreactivity
20,QVQLVESGGGLVQAGGSLRLSCAASGSIFYVYVMGWYRQAPGKERELVAAIDTGGGDTYYADSVKGRFTISRDNAKNTVYLQMNSLKPEDTAVYYCAAELYDYGDLYYSEYDYWGQGTQVTVSS,low polyreactivity
21,QVQLVESGGGLVQAGGSLRLSCAASGSIFYVYVMGWYRQAPGKERELVAGISYRGGSTYYADSVKGRFTISRDNAKNTVYLQMNSLKPEDTAVYYCNAGVWTYWHIEMDYWGQGTQVTVSS,low polyreactivity
